{
  "source": "patent US20150344570A1",
  "about": "(published 2015)",
  "assay_in_all_cases": "SPR (Biacore); KD of H240-Kn033/H240-Hl033/L73-k0 divided by KD of the variant",
  "key": {"FcgRIIb": {"target": "T1, FcgRIIb (human, UniProt P31994 43-217)", "T1 construct": "extracellular domain; also called FcγRIIb; 2b; not shown: His tag at the C terminus", "T1 sequence (looked up)": "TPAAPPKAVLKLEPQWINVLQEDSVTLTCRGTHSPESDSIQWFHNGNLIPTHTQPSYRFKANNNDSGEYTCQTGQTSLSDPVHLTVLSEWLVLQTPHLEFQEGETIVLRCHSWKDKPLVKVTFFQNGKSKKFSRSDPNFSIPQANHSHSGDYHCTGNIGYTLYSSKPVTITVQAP", "protocol": "(§1) Next, the amino acid at position 330 was examined. The A330M alteration has been introduced into H240-Hl076 of H240-Kn125/H240-Hl076/L73-k0. […] L73-k0 was used as the common antibody L chain. Binding of the produced variants to FcgRIa, FcgRIIaR, FcgRIIaH, FcgRIIb, FcgRIIIaF, and FcgRIIIaV was measured according to the method of Reference Example 8.\n(§2) Analysis of interaction between objective antibody and the FcγR was carried out using Biacore T100 (GE Healthcare), Biacore T200, Biacore A100, and Biacore 4000. HBS-EP+ (GE Healthcare) was used as the running buffer, and the measurement temperature was set to 25° C. Chips produced by immobilizing the antigen peptide by the amine coupling method to a Series S sensor Chip CM5 (GE Healthcare), chips produced by allowing preliminarily biotinylated antigen peptides to interact with and immobilize onto a Series S Sensor Chip SA (certified) (GE Healthcare), chips produced by immobilizing Protein L (ACTIGEN, BioVision) to Series S Sencor Chip CM5 (GE Healthcare), or chips produced by immobilizing Protein A/G (Thermo Scientific) to Series S Sencor Chip CM5 (GE Healthcare) were used. Antibodies of interest were captured onto these chips, and allowed to interact to each FcγR diluted with running buffer. To regenerate and repeatedly use the chip, the antibodies captured onto the chip were washed off by reacting 10 mM glycine-HCl, pH 1.5."}, "FcgRIIIaF": {"target": "T2, FcgRIIIaF (human, UniProt P08637 17-208)", "T2 construct": "extracellular domain; Polymorphic site after J. Clin. Invest; also called FcγRIIIa F; 3aF; not shown: His tag at the C terminus", "T2 sequence (P08637 17-208)": "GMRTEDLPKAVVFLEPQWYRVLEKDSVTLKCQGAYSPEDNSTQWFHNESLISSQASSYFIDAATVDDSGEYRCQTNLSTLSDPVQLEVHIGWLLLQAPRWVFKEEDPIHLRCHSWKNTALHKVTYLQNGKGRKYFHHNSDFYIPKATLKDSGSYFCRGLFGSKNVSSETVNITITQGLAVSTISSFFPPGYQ", "protocol": "as §1, §2"}, "FcgRIIIaV": {"target": "T3, FcgRIIIaV (human, UniProt P08637 17-208)", "T3 construct": "extracellular domain; Polymorphic site after J. Clin. Invest; also called FcγRIIIa V; 3aV; not shown: His tag at the C terminus", "T3 sequence (P08637 17-208 F176V limits assumed)": "as the sequence (P08637 17-208) above, with F160V counted along it", "protocol": "as §1, §2"}, "FcgRIIaR": {"target": "T4, FcgRIIaR (human, UniProt P12318 34-217)", "T4 construct": "extracellular domain; also called FcγRIIa R; FcγRIIa type R; not shown: His tag at the C terminus", "T4 sequence (looked up)": "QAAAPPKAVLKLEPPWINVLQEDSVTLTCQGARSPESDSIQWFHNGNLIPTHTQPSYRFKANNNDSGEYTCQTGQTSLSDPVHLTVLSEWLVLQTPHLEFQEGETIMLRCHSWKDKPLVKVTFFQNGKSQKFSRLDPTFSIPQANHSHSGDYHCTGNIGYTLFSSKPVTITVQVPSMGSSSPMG", "protocol": "as §1, §2"}, "FcgRIIaH": {"target": "T5, FcgRIIaH (human, UniProt P12318 34-217)", "T5 construct": "extracellular domain; also called FcγRIIa H; FcγRIIa type H; not shown: His tag at the C terminus", "T5 sequence (looked up)": "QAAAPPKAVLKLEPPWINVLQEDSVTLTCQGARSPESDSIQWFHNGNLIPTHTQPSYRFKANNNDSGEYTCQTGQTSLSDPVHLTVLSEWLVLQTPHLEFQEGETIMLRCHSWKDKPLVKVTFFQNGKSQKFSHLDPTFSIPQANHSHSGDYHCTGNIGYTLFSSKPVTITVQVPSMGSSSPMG", "protocol": "as §1, §2"}},
  "data": [
    {"binder": "H240-Kn037/H240-Hl036/L73-k0 (antibody, human IgG1, kappa, It says both H chains have G236A/S239D/I332E) heavy 1: QDQLVQSGAEVKKPGASVKVSCKASGFNIKDTYIQWVRQAPGQGLEWMGRIDPLRKQTKYREKFEGRVTITADTSTNTAYMELSSLRSEDTAVYYCVRSGREFDYWGQGTLVTVSSASTKGPSVFPLAPSSKSTSGGTAALGCLVKDYFPEPVTVSWNSGALTSGVHTFPAVLQSSGLYSLSSVVTVPSSSLGTQTYICNVNHKPSNTKVDKKVEPKSCDKTHTCPPCPAPELLAGPDVFLFPPKPKDTLMISRTPEVTCVVVDVSHEDPEVKFNWYVDGVEVHNAKTKPREEQYNSTYRVVSVLTVLHQDWLNGKEYKCKVSNKALPAPEEKTISKAKGQPREPQVCTLPPSRDELTKNQVSLWCLVKGFYPSDIAVEWESNGQPENNYKTTPPVLDSDGSFFLYSKLTVDKSRWQQGNVFSCSVMHEALHNHYTQKSLSLSP heavy 2: QDQLVQSGAEVKKPGASVKVSCKASGFNIKDTYIQWVRQAPGQGLEWMGRIDPLRKQTKYREKFEGRVTITADTSTNTAYMELSSLRSEDTAVYYCVRSGREFDYWGQGTLVTVSSASTKGPSVFPLAPSSKSTSGGTAALGCLVKDYFPEPVTVSWNSGALTSGVHTFPAVLQSSGLYSLSSVVTVPSSSLGTQTYICNVNHKPSNTKVDKKVEPKSCDKTHTCPPCPAPELLAGPDVFLFPPKPKDTLMISRTPEVTCVVVDVSHEDPEVKFNWYVDGVEVHNAKTKPREEQYNSTYRVVSVLTVLHQDWLNGKEYKCKVSNKALPAPEEKTISKAKGQPREPQVYTLPPSRCELTKNQVSLSCAVKGFYPSDIAVEWESNGQPENNYKTTPPVLDSDGSFFLVSKLTVDKSRWQQGNVFSCSVMHEALHNHYTQKSLSLSP light: DIQMTQSPSSLSASVGDRVTITCRASQDIHKYIAWYQQKPGQAPRLLIQYTSTLQPGVPSRFSGSGSGTDYTFTISSLQPEDIATYYCLQYEQLRTFGGGTKVEIKRTVAAPSVFIFPPSDEQLKSGTASVVCLLNNFYPREAKVQWKVDNALQSGNSQESVTEQDSKDSTYSLSSTLTLSKADYEKHKVYACEVTHQGLSSPVTKSFNRGEC", "values": [
      {"measurement": "fold 2b", "setting": "FcgRIIb", "result": 8.7, "unit": "fold"},
      {"measurement": "fold 3aF", "setting": "FcgRIIIaF", "result": 13.8, "unit": "fold"},
      {"measurement": "fold 3aV", "setting": "FcgRIIIaV", "result": 7.1, "unit": "fold"},
      {"measurement": "fold 2aR", "setting": "FcgRIIaR", "result": 25.5, "unit": "fold"},
      {"measurement": "fold 2aH", "setting": "FcgRIIaH", "result": 11.3, "unit": "fold"}
    ]},
    {"binder": "H240-Kn204/H240-Hl211/L73-k0 (antibody, human IgG1, kappa) heavy 1: QDQLVQSGAEVKKPGASVKVSCKASGFNIKDTYIQWVRQAPGQGLEWMGRIDPLRKQTKYREKFEGRVTITADTSTNTAYMELSSLRSEDTAVYYCVRSGREFDYWGQGTLVTVSSASTKGPSVFPLAPSSKSTSGGTAALGCLVKDYFPEPVTVSWNSGALTSGVHTFPAVLQSSGLYSLSSVVTVPSSSLGTQTYICNVNHKPSNTKVDKKVEPKSCDKTHTCPPCPAPEYLGGPSVFLFPPKPKDTLMISRTPEVTCVVVDVSHEDPEVKFNWYVDGVEVHNAKTYPREEQWNSTYRVVSVLTVLHQDWLNGKEYKCKVSNKALPAPIEKTISKAKGQPREPQVCTLPPSRDELTKNQVSLWCLVKGFYPSDIAVEWESNGQPENNYKTTPPVLDSDGSFFLYSKLTVDKSRWQQGNVFSCSVMHEALHNHYTQKSLSLSP heavy 2: QDQLVQSGAEVKKPGASVKVSCKASGFNIKDTYIQWVRQAPGQGLEWMGRIDPLRKQTKYREKFEGRVTITADTSTNTAYMELSSLRSEDTAVYYCVRSGREFDYWGQGTLVTVSSASTKGPSVFPLAPSSKSTSGGTAALGCLVKDYFPEPVTVSWNSGALTSGVHTFPAVLQSSGLYSLSSVVTVPSSSLGTQTYICNVNHKPSNTKVDKKVEPKSCDKTHTCPPCPAPELLGGPDVFLFPPKPKDTLMISRTPEVTCVVVDVSHEDPEVKFNWYVDGVEVHNAKTKPREEQYNSTYRVVSVLTVLHQDWLNGKEYKCKVSNKALPMPIEVTISKAKGQPREPQVYTLPPSRCELTKNQVSLSCAVKGFYPSDIAVEWESNGQPENNYKTTPPVLDSDGSFFLVSKLTVDKSRWQQGNVFSCSVMHEALHNHYTQKSLSLSP light: DIQMTQSPSSLSASVGDRVTITCRASQDIHKYIAWYQQKPGQAPRLLIQYTSTLQPGVPSRFSGSGSGTDYTFTISSLQPEDIATYYCLQYEQLRTFGGGTKVEIKRTVAAPSVFIFPPSDEQLKSGTASVVCLLNNFYPREAKVQWKVDNALQSGNSQESVTEQDSKDSTYSLSSTLTLSKADYEKHKVYACEVTHQGLSSPVTKSFNRGEC", "values": [
      {"measurement": "fold 2b", "setting": "FcgRIIb", "result": 2.5, "unit": "fold"},
      {"measurement": "fold 3aF", "setting": "FcgRIIIaF", "result": 20.7, "unit": "fold"},
      {"measurement": "fold 3aV", "setting": "FcgRIIIaV", "result": 6.5, "unit": "fold"},
      {"measurement": "fold 2aR", "setting": "FcgRIIaR", "result": 1.2, "unit": "fold"},
      {"measurement": "fold 2aH", "setting": "FcgRIIaH", "result": 0.7, "unit": "fold"}
    ]},
    {"binder": "H240-Kn205/H240-Hl212/L73-k0 (antibody, human IgG1, kappa) heavy 1: QDQLVQSGAEVKKPGASVKVSCKASGFNIKDTYIQWVRQAPGQGLEWMGRIDPLRKQTKYREKFEGRVTITADTSTNTAYMELSSLRSEDTAVYYCVRSGREFDYWGQGTLVTVSSASTKGPSVFPLAPSSKSTSGGTAALGCLVKDYFPEPVTVSWNSGALTSGVHTFPAVLQSSGLYSLSSVVTVPSSSLGTQTYICNVNHKPSNTKVDKKVEPKSCDKTHTCPPCPAPEYLGGPSVFLFPPKPKDTLMISRTPEVTCVVVDVSHEDPEVKFNWYVDGVEVHNAKTKPREEQWNCTYRVVSVLTVLHQDWLNGKEYKCKVSNKALPAPIEKTISKAKGQPREPQVCTLPPSRDELTKNQVSLWCLVKGFYPSDIAVEWESNGQPENNYKTTPPVLDSDGSFFLYSKLTVDKSRWQQGNVFSCSVMHEALHNHYTQKSLSLSP heavy 2: QDQLVQSGAEVKKPGASVKVSCKASGFNIKDTYIQWVRQAPGQGLEWMGRIDPLRKQTKYREKFEGRVTITADTSTNTAYMELSSLRSEDTAVYYCVRSGREFDYWGQGTLVTVSSASTKGPSVFPLAPSSKSTSGGTAALGCLVKDYFPEPVTVSWNSGALTSGVHTFPAVLQSSGLYSLSSVVTVPSSSLGTQTYICNVNHKPSNTKVDKKVEPKSCDKTHTCPPCPAPELLGGPDVFLFPPKPKDTLMISRTPEVTCVVVDVSHEDPEVKFNWYVDGVEVHNAKTKPREEQYNSTYRVVSVLTVLHQDWLNGKEYKCKVSNKALPAPIEVTISKAKGQPREPQVYTLPPSRCELTKNQVSLSCAVKGFYPSDIAVEWESNGQPENNYKTTPPVLDSDGSFFLVSKLTVDKSRWQQGNVFSCSVMHEALHNHYTQKSLSLSP light: DIQMTQSPSSLSASVGDRVTITCRASQDIHKYIAWYQQKPGQAPRLLIQYTSTLQPGVPSRFSGSGSGTDYTFTISSLQPEDIATYYCLQYEQLRTFGGGTKVEIKRTVAAPSVFIFPPSDEQLKSGTASVVCLLNNFYPREAKVQWKVDNALQSGNSQESVTEQDSKDSTYSLSSTLTLSKADYEKHKVYACEVTHQGLSSPVTKSFNRGEC", "values": [
      {"measurement": "fold 2b", "setting": "FcgRIIb", "result": 2.1, "unit": "fold"},
      {"measurement": "fold 3aF", "setting": "FcgRIIIaF", "result": 24.2, "unit": "fold"},
      {"measurement": "fold 3aV", "setting": "FcgRIIIaV", "result": 11.4, "unit": "fold"},
      {"measurement": "fold 2aR", "setting": "FcgRIIaR", "result": 1.2, "unit": "fold"},
      {"measurement": "fold 2aH", "setting": "FcgRIIaH", "result": 1.4, "unit": "fold"}
    ]},
    {"binder": "H240-afucosyl_G1d/L73-k0 (antibody, human IgG1, kappa, fucose removed from the N-linked sugar chain (afucosylated), also called afucosylated antibody) heavy: not shown light: DIQMTQSPSSLSASVGDRVTITCRASQDIHKYIAWYQQKPGQAPRLLIQYTSTLQPGVPSRFSGSGSGTDYTFTISSLQPEDIATYYCLQYEQLRTFGGGTKVEIKRTVAAPSVFIFPPSDEQLKSGTASVVCLLNNFYPREAKVQWKVDNALQSGNSQESVTEQDSKDSTYSLSSTLTLSKADYEKHKVYACEVTHQGLSSPVTKSFNRGEC", "values": [
      {"measurement": "fold 2b", "setting": "FcgRIIb", "result": 1.3, "unit": "fold"},
      {"measurement": "fold 3aF", "setting": "FcgRIIIaF", "result": 3.7, "unit": "fold"},
      {"measurement": "fold 3aV", "setting": "FcgRIIIaV", "result": 7, "unit": "fold"},
      {"measurement": "fold 2aR", "setting": "FcgRIIaR", "result": 1.5, "unit": "fold"},
      {"measurement": "fold 2aH", "setting": "FcgRIIaH", "result": 0.7, "unit": "fold"}
    ]}
  ]
}
